Residue numbers refer to the chain shown, from its start.
Tests used:
[1] = Thermostability, ProteoStat Thermal Shift Stability Kit, temperature of aggregation; assay type: physicochemical
Protocol: Thermostability. The thermostability of proteins in a buffer cocktail of Citric Acid and Dibasic Sodium Phosphate over a pH range of 2.8 to 7.1 (preparation described above in Table E31B) was determined using the ProteoStat® Thermal Shift Stability Kit (Enzo Life Sciences) according to the manufacturer's standard protocol. Briefly, protein solutions (˜10 mg/ml) containing 1× ProteoStat TS Detection Reagent were heated from 25° C. to 95° C. at a rate of 0.5° C. per 30 sec using a real-time PCR (rtPCR) thermocycler (BioRad) equipped with a plate reader (SynergyMx, Biotek) while monitoring the fluorescence with a Texas Red filter.

[2] = Intact half-life during simulated gastric fluid (SGF) digestion; conditions: for SGF Half-life (t½): SGF pH 1.5, pepsin:polypeptide 1:20 w/w, 37° C., produced in E. coli unless otherwise noted
[3] = pH solubility screen in Citric Acid / Dibasic Sodium Phosphate buffers; assay type: physicochemical; conditions: for pH Range where Protein is >80% detected as Soluble and A650 <1 OD: Low: lower pH of range; for pH Range where Protein is >80% detected as Soluble and A650 <1 OD: High: upper pH of range
Protocol: pH Solubility. […] Protein was either lyophilized and then resuspended in buffer cocktail mixtures, or concentrated and then spiked into buffer cocktail mixtures at a final protein concentration of 5 to 30 mg/ml. As a control, protein was also dissolved in a solution of 8 M urea. Protein solutions were shaken for 10 min at room temperature. Turbidity of proteins was determined by measuring the absorbance of protein solutions at 650 nm. The protein solution was then centrifuged for 10 min at 1100×g to pellet undissolved or precipitated protein. The soluble protein fraction (supernatant) was sampled and protein concentration was measured by one or more of the following methods: Coomassie Plus Protein Assay (Pierce), Chip electrophoresis, gel electrophoresis, and/or absorbance at 280 nm. The pH range over which select proteins remained greater than 80% soluble as determined by Bradford and the A650 value are listed in Table E31C.

[4] = heated 25° C. to 95° C., NS = protein not soluble

B1: SEQID-00098: nutritive polypeptide (protein, listed as Lactococcus lactis)
chain: MAVFEKVQDIIVDELGKEKEEVTLETSFEELDADSLDLFQIINDIEDEFDVEVDTEADMKTVADLVKYVENNK
Tagg (pH 7.1) [1, 4]: >95
SGF Half-life (t½) [2]: 24 s

B2: SEQID-00100: nutritive polypeptide (protein, listed as Lactobacillus acidophilus)
chain: MSEEEIFNKIKDLIADNFEVDKDSITENTNFMNDLDADSIDLVEFILQLEDEFGAEIPDDEAEKIKTVGDAVSYIKSHQG
pH Range where Protein is >80% detected as Soluble and A650 <1 OD: Low [3]: 4.3
pH Range where Protein is >80% detected as Soluble and A650 <1 OD: High [3]: 7.1
Tagg pH 2.8 ([1]; pH 2.8, NS = protein not soluble): 95
Tagg pH 3.7 ([1]; pH 3.7, NS = protein not soluble): 95
Tagg pH 3.9 ([1]; pH 3.9, NS = protein not soluble): 95
Tagg pH 4.3 ([1]; pH 4.3, NS = protein not soluble): 83
Tagg pH 4.6 ([1]; pH 4.6, NS = protein not soluble): 84
Tagg pH 5.0 ([1]; pH 5.0, NS = protein not soluble): 95
Tagg pH 5.6 ([1]; pH 5.6, NS = protein not soluble): 95
Tagg pH 6.0 ([1]; pH 6.0, NS = protein not soluble): 95
Tagg pH 6.5 ([1]; pH 6.5, NS = protein not soluble): 95
Tagg (pH 7.1) [1, 4]: >95
SGF Half-life (t½) [2]: 120 s

B3: SEQID-00220: nutritive polypeptide (protein, listed as Bos taurus)
chain: DTKKKVDDDLGTIENLEEAKKKLLKDVEVLSQRLEEKALAYDKLEKTKTRLQQELDDLLVDLDHQ
Tagg (pH 7.1) ([1]; heated from 25° C. to 95° C.): >95
SGF Half-life (t½) [2]: 30 s

B4: SEQID-00287: nutritive polypeptide (protein, listed as Saccharomyces cerevisiae)
chain: LVLGALLDTSHKFRNLDKDLCEKCAKCISMIGVLDVTKHEFKRTTYSENEVYDLNDSVQTIKFLIWVINDILV
modifications: strain ATCC 204508 / S288c
notes: nutritive polypeptide
pH Range where Protein is >80% detected as Soluble and A650 <1 OD: Low [3]: 6.2
pH Range where Protein is >80% detected as Soluble and A650 <1 OD: Other [3]: 2.6
pH Range where Protein is >80% detected as Soluble and A650 <1 OD: High [3]: 9.1
SGF Half-life (t½) [2]: 180 s

B5: SEQID-00302: nutritive polypeptide (protein)
chain: MAKKTVANLSASELSGKKVLVRADFNVPLDNGSISDDTRIRAALPTIQDLTSKGAKVILSSHFGRPQGQVVESMRLTPVAARLSELLGKTVKKCDDCIGEEVAVAVGAMSDGDVLLLENVRFHAAEEKNDPEFAKQLASVADLYVNDAFGTAHRAHASTEGVTKYLSPCVAGYLIEKELQFLQGAIESPQRPLAAIIGGSKVSSKIGVIEALLDKCDKLLLGGGMIFTFYKARGLSVGNSLVEEDKLELAKSLEAKAKEKGVTMLLPTDVVLADKFAADADSQTVSVEAIPDGWMGLDIGPDSVKVFQEALGDCKTVLWNGPMGVFEFEKFAAGTRAIAQTLAELTSTGTTTIIGGGDSVAAVEQLNLGEKMSHISTGGGASLELLEGKQLPGIVALDDA
modifications: Arthrospira platensis C1
notes: nutritive polypeptide
Tagg (pH 7.1) ([1]; heated from 25° C. to 95° C.): 46
SGF Half-life (t½) [2]: 12 s

B6: SEQID-00305: nutritive polypeptide (protein, listed as Bos taurus)
chain: MPHQYPALTPEQKKELCDIAHRIVAPGKGILAADESTGSIAKRLQSIGTENTEENRRFYRQLLLTADDRVNPCIGGVILFHETLYQKADDGRPFPQVIKAKGGVVGIKVDKGVVPLAGTNGETTTQGLDGLSERCAQYKKDGADFAKWRCVLKIGEHTPSSLAIMENANVLARYASICQQNGIVPIVEPEILPDGDHDLKRCQYVTEKVLAAVYKALSDHHIYLEGTLLKPNMVTPGHACTQKYSHEEIAMATVTALRRTVPPAVPGITFLSGGQSEEEASINLNAINKCPLLKPWALTFSYGRALQASALKAWGGKKENLKAAQEEYVKRALANSLACQGKYTPSGKAGAAASESLFISNHAY
Tagg (pH 7.1) ([1]; heated from 25° C. to 95° C.): 48
SGF Half-life (t½) [2]: 12 s

B7: SEQID-00510: nutritive polypeptide naturally produced in Turkey, recombinantly expressed in E. coli (protein)
chain: MVPIAEKMAEKQEEPSNTQNGEPDNAEEGEGKKKKKVKREDLPPFEIVTGERLPAIFFKFQFRNVEYSSGRNKTFLCYVVETQGKESTTSRGYLEDEHAASHAEIAFFNTILPKCESSLRYNITWYVSSSPCVTCADRISETLRKNKNLRLTIMVGRLFMWEEPEMQAALKKMKSAGCKLRIMKPQDFEYVWQNFVEQEEGEEAKAFVPWEDIQENFQYYEEKLAEILQ
modifications: Meleagris gallopavo
notes: nutritive polypeptide naturally produced in Turkey, recombinantly expressed in E. coli
pH Range where Protein is >80% detected as Soluble and A650 <1 OD: Low [3]: 6.5
pH Range where Protein is >80% detected as Soluble and A650 <1 OD: Other [3]: 2.8
pH Range where Protein is >80% detected as Soluble and A650 <1 OD: High [3]: 7.1
SGF Half-life (t½) [2]: 18 s
Half-life ([2]; purified proteins, chip electrophoresis, SGF): 18 s

B8: SEQID-00672 (BS): nutritive polypeptide (protein, listed as Saccharomyces cerevisiae)
chain: MSSSESIRMVLIGPPGAGKGTQAPNLQERFHAAHLATGDMLRSQIAKGTQLGLEAKKIMDQGGLVSDDIMVNMIKDELTNNPACKNGFILDGFPRTIPQAEKLDQMLKEQGTPLEKAIELKVDDELLVARITGRLIHPASGRSYHKIFNPPKEDMKDDVTGEALVQRSDDNADALKKRLAAYHAQTEPIVDFYKKTGIWAGVDASQPPATVWADILNKLGKD
modifications: strain ATCC 204508 / S288c
SGF Half-life (t½) [2]: 18 s

B9: SEQID-00678 (BS): nutritive polypeptide (protein, listed as Saccharomyces cerevisiae)
chain: B8 chain with R42K
modifications: strain ATCC 204508 / S288c
SGF Half-life (t½) [2]: 12 s

B10: SEQID-00690: engineered secreted variant of SEQID-00407 enriched in essential amino acids which retains enzymatic activity (protein, listed as Bacillus subtilis)
chain: ETANKSNELTAPSIKSGTILHAWNWSFNTLKHNMKDIHDAGYTAIQTSPINQVKEGNQGDKSMSNWYWLYQPTSYQIGNRYLGTEQEFKEMCAAAEEYGIKVIVDAVINHTTSDLVGVLSNEVKSIPNWTHGNTQIKNWSDRWDVTQNSLLGLYDWNTQNTQVQSYLKRFLDRALNDGADGFRFDAAKHIELPDDGSYGSQFWPNITRVVMEFQYGEILQDSASRDAAYANYMDVTASNYGHSIRSALKNRNLGVSNIVMYILRVSADKLVTWVESHDTYANDDEESTWMSDDDIRLGWAVIASRSGSTPLFFSRPEGGGNGVRFPGKSQIGDRGSALFEDQAITAVNRFHNVMAGLPKRLSNPNGNNQIFMNQRGSHGVVLANAGSSSVSINTATKLPDGRYDNKAGAGSFQVNDGKLTGTINARSVAVLYPDDIAKAPHVFLENYKTGVTHSFNDQLTITMRADANTTKAVYQINNGPETAFKDGDQFTIGKGDPFGKTYTIMLKGTNSDGVTRTEKYSFVKRDPASAKTIGYQNPNHWSQVNAYIYKHDGSRVIELTGSWPGKPMTKNADGIYTLTLPADTDTTNAKVIFNNGSAQVPGQNQPGFDYVLNGLYNDSGLSGSLPH
modifications: strain 168
SGF Half-life (t½) [2]: 264 s

B11: SEQID-00001 (HEK293): nutritive polypeptide (protein, listed as Gallus gallus)
chain: MGSIGAASMEFCFDVFKELKVHHANENIFYCPIAIMSALAMVYLGAKDSTRTQINKVVRFDKLPGFGDSIEAQCGTSVNVHSSLRDILNQITKPNDVYSFSLASRLYAEERYPILPEYLQCVKELYRGGLEPINFQTAADQARELINSWVESQTNGIIRNVLQPSSVDSQTAMVLVNAIVFKGLWEKAFKDEDTQAMPFRVTEQESKPVQMMYQIGLFRVASMASEKMKILELPFASGTMSMLVLLPDEVSGLEQLESIINFEKLTEWTSSNVMEERKIKVYLPRMKMEEKYNLTSVLMAMGITDVFSSSANLSGISSAESLKISQAVHAAHAEINEAGREVVGSAEAGVDAASVSEEFRADHPFLFCIKHIATNAVLFFGRCVSP
modifications: expressed in HEK293
SGF Half-life (t½) [2]: 516 s

Source: US20260069656A1, “Nutritive Polypeptides and Formulations Thereof, and Methods of Production and Use Thereof” (Axcella Health Inc., priority 2013, published 2026)
